Patent publication US20240254223A1 (NOVIMMUNE, published 2024)

Experiments:
[1] = biological target: T1, CD47 at the surface of Peak cells (human, UniProt Q08722 19-323); assay: flow cytometry, Peak cells, after MMP-9 treatment
T1 construct: whole, on cells; also called cell surface CD47
Description: Binding activity of antibody-cytokine/receptor fusions before and after cleavage was also evaluated by flow cytometry. Peak cells derived from HEK 293 which are human cells expressing CD47 were used to evaluate masking efficacy and binding recovery to CD47 by flow cytometry. Peak cells were diluted in cold FACS buffer (PBS, 2% BSA) to 1.2×10⁶ cells/mL. 3×10⁵ cells/well were added in a 96 well V-bottom plate. The plate was then centrifugated for 5 min at 1300 rpm, 4° C. Supernatants were removed and cells were washed twice using FACS buffer. A serial dilution of antibody-cytokine/receptor fusions previously digested with MMP-9 or not digested as described above was prepared in FACS buffer. An irrelevant antibody was included. Then, 150 μL of each diluted antibody were added in corresponding well and incubated for 30 min at 4° C. Cells were washed twice with FACS buffer and 100 μL of a mouse anti human Fc-PE conjugated secondary antibody were added and the plate was incubated for 20 min at 4° C. Cells were then washed twice with FACS buffer. Finally, 150 μL of SYTOX blue dead cell stain (ThermoFisher) diluted to 1/5000 in FACS buffer were added before detection by flow cytometry with Cytoflex (Beckman Coulter). Acquisition was performed with 10000 events for each well. Data were analyzed by FlowJo software.

[2] = biological target: T2, high affinity trimeric IL-2R (IL-2Rα, IL-2Rβ and IL-2Rγ) on HEK-Blue IL-2 cells (UniProt P01589 22-272; P14784 27-551; P31785 23-369); assay: cell-based or functional assay
T2 sequence (looked up) 1: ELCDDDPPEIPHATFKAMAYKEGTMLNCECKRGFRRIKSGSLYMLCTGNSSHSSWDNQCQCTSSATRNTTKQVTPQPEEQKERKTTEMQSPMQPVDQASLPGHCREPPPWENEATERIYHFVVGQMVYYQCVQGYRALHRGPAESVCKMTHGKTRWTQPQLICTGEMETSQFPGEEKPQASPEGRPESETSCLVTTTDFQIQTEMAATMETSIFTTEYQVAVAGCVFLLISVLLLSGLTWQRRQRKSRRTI
T2 sequence (looked up) 2: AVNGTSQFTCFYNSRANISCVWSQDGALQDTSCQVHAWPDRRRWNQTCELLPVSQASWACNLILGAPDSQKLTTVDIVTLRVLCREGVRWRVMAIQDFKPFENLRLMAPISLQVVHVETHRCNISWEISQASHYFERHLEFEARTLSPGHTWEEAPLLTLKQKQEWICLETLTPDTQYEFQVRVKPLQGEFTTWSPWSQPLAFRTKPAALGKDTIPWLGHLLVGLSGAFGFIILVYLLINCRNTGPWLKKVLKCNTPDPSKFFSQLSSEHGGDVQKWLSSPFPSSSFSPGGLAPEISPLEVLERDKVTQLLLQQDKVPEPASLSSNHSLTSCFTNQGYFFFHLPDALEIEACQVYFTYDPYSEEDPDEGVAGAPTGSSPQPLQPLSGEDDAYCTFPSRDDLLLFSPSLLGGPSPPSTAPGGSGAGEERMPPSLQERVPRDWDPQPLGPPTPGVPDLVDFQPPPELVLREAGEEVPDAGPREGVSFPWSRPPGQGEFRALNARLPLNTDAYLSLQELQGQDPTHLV
T2 sequence (looked up) 3: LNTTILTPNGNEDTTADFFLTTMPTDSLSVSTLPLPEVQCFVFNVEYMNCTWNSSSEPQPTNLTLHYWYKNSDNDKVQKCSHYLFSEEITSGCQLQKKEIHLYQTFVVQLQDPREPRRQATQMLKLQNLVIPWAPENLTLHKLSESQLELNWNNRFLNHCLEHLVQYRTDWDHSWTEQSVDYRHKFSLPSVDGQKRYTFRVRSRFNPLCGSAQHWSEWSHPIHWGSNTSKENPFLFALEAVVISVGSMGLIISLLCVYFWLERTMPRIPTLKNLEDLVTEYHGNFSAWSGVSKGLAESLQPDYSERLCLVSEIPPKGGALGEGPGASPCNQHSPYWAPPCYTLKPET

His-tagged human CD47 = biological target: T3, His-tagged human CD47 (human, UniProt Q08722 19-139, limits assumed); assay: BLI, His-CD47 on HIS1K sensor, after MMP-9 treatment
T3 construct: loaded on HIS1K biosensors at 2.5 µg/mL; also called target antigen; not shown: His tag
Description: The capacity of the masking domains to inhibit binding activity of the antibody was evaluated by Bio-Layer Interferometry (BLI). […] Binding experiments were performed to evaluate the masking efficiency and the binding recovery after cleavage of the masking domains. BLI was performed on an Octet RED96 system (Sartorius). His-tagged human CD47 was diluted at 2.5 μg/mL in Kinetic Buffer (KB) (Sartorius) and loaded on HIS1K biosensors (anti-His tag antibody biosensors, Sartorius) for 300 seconds. Loaded biosensors were dipped into antibodies diluted at 15 μg/mL in KB for 300 seconds to monitor association. Then, biosensors were transferred in KB for dissociation for 60 seconds. Binding profiles were then analyzed with ForteBio Data Analysis software.

B1: Construct No 281 after cleavage by MMP-9 (antibody)
light: DIQMTQSPSSLSASVGDRVTITCNVDQVIANWLNWYQQKPGKAPKLLIYAASSLQSGVPSRFSGSGSGTDFTLTISSLQPEDFATYYCQQMHPRAPKQFGQGTKVEIKRTVAAPSVFIFPPSDEQLKSGTASVVCLLNNFYPREAKVQWKVDNALQSGNSQESVTEQDSKDSTYSLSSTLTLSKADYEKHKVYACEVTHQGLSSPVTKSFNRGEC
heavy: not shown
notes: MMP-9 digest of m13; the sample also holds the released IL-2; also called n281 after cleavage; not shown: remnant of CM1 and linker after MMP-9 cleavage
EC50 [1]: 0.9 nM | EC50 after cleavage IL-2, HEK Blue IL-2 αβγ reporter assay [2]: 0.01 nM

B2: Construct No 1051 after cleavage by MMP-9 (antibody)
light: DIQMTQSPSSLSASVGDRVTITCNVDQVIANWLNWYQQKPGKAPKLLIYAASSLQSGVPSRFSGSGSGTDFTLTISSLQPEDFATYYCQQMHPRAPKQFGQGTKVEIKRTVAAPSVFIFPPSDEQLKSGTASVVCLLNNFYPREAKVQWKVDNALQSGNSQESVTEQDSKDSTYSLSSTLTLSKADYEKHKVYACEVTHQGLSSPVTKSFNRGEC
heavy: not shown
notes: MMP-9 digest of m36; the sample also holds the released IL-2Rα-(GGGGS)2-IL-2 fusion (no cleavable linker between the two); also called n1051 after cleavage; not shown: remnant of CM1 and linker after MMP-9 cleavage
EC50 [1]: 1.7 nM | Binding after cleavage (BLI) (His-tagged human CD47): 1.2 nm | EC50 after cleavage IL-2, HEK Blue IL-2 αβγ reporter assay [2]: 0.03 nM

B3: Construct No 545 after cleavage by MMP-9 (antibody)
light: DIQMTQSPSSLSASVGDRVTITCNVDQVIANWLNWYQQKPGKAPKLLIYAASSLQSGVPSRFSGSGSGTDFTLTISSLQPEDFATYYCQQMHPRAPKQFGQGTKVEIKRTVAAPSVFIFPPSDEQLKSGTASVVCLLNNFYPREAKVQWKVDNALQSGNSQESVTEQDSKDSTYSLSSTLTLSKADYEKHKVYACEVTHQGLSSPVTKSFNRGEC
heavy: not shown
notes: MMP-9 digest of m19; the sample also holds the released IL-2, IL-2Rα and IL-2Rβ; also called n545 after cleavage; not shown: remnant of CM1 and linker after MMP-9 cleavage
EC50 [1]: 0.6 nM | EC50 after cleavage IL-2, HEK Blue IL-2 αβγ reporter assay [2]: 0.01 nM

B4: Construct No 530 after cleavage by MMP-9 (antibody)
light: DIQMTQSPSSLSASVGDRVTITCNVDQVIANWLNWYQQKPGKAPKLLIYAASSLQSGVPSRFSGSGSGTDFTLTISSLQPEDFATYYCQQMHPRAPKQFGQGTKVEIKRTVAAPSVFIFPPSDEQLKSGTASVVCLLNNFYPREAKVQWKVDNALQSGNSQESVTEQDSKDSTYSLSSTLTLSKADYEKHKVYACEVTHQGLSSPVTKSFNRGEC
heavy: not shown
notes: MMP-9 digest of m18; the sample also holds the released IL-2, IL-2Rα and IL-2Rβ; also called n530 after cleavage; not shown: remnant of CM1 and linker after MMP-9 cleavage
EC50 [1]: 0.4 nM | EC50 after cleavage IL-2, HEK Blue IL-2 αβγ reporter assay [2]: 0.01 nM

B5: Construct No 1030 after cleavage by MMP-9 (antibody)
light: DIQMTQSPSSLSASVGDRVTITCNVDQVIANWLNWYQQKPGKAPKLLIYAASSLQSGVPSRFSGSGSGTDFTLTISSLQPEDFATYYCQQMHPRAPKQFGQGTKVEIKRTVAAPSVFIFPPSDEQLKSGTASVVCLLNNFYPREAKVQWKVDNALQSGNSQESVTEQDSKDSTYSLSSTLTLSKADYEKHKVYACEVTHQGLSSPVTKSFNRGEC
heavy: not shown
notes: MMP-9 digest of m37; the sample also holds the released IL-2 Q126T and IL-2Rα; also called n1030 after cleavage; not shown: remnant of CM1 and linker after MMP-9 cleavage
EC50 [1]: 0.8 nM | Binding after cleavage (BLI) (His-tagged human CD47): 1.3 nm | EC50 after cleavage IL-2, HEK Blue IL-2 αβγ reporter assay [2]: 0.23 nM

B6: Construct No 500 after cleavage by MMP-9 (antibody)
light: DIQMTQSPSSLSASVGDRVTITCNVDQVIANWLNWYQQKPGKAPKLLIYAASSLQSGVPSRFSGSGSGTDFTLTISSLQPEDFATYYCQQMHPRAPKQFGQGTKVEIKRTVAAPSVFIFPPSDEQLKSGTASVVCLLNNFYPREAKVQWKVDNALQSGNSQESVTEQDSKDSTYSLSSTLTLSKADYEKHKVYACEVTHQGLSSPVTKSFNRGEC
heavy: not shown
notes: MMP-9 digest of m21; the sample also holds the released IL-2, IL-2Rβ and IL-2Rα; also called n500 after cleavage; not shown: remnant of CM1 and linker after MMP-9 cleavage
EC50 [1]: 0.8 nM | EC50 after cleavage IL-2, HEK Blue IL-2 αβγ reporter assay [2]: 0.02 nM

B7: Construct No 291 after cleavage by MMP-9 (antibody)
chain 1: DIQMTQSPSSLSASVGDRVTITCNVDQVIANWLNWYQQKPGKAPKLLIYAASSLQSGVPSRFSGSGSGTDFTLTISSLQPEDFATYYCQQMHPRAPKQFGQGTKVEIKRTVAAPSVFIFPPSDEQLKSGTASVVCLLNNFYPREAKVQWKVDNALQSGNSQESVTEQDSKDSTYSLSSTLTLSKADYEKHKVYACEVTHQGLSSPVTKSFNRGEC
chain 2: not shown
EC50 [1]: 0.4 nM | EC50 after cleavage IL-2, HEK Blue IL-2 αβγ reporter assay [2]: 0.01 nM
